Values quoted from earlier work, collected in paper PMC3164694.

Experiments:
[1] = target: MMP-2 (Homo sapiens) (UniProt P08253)
[2] = target: TIMP-2 (Homo sapiens) (UniProt P16035)

Sequence of MMP-2 (Homo sapiens) (P08253 110-660): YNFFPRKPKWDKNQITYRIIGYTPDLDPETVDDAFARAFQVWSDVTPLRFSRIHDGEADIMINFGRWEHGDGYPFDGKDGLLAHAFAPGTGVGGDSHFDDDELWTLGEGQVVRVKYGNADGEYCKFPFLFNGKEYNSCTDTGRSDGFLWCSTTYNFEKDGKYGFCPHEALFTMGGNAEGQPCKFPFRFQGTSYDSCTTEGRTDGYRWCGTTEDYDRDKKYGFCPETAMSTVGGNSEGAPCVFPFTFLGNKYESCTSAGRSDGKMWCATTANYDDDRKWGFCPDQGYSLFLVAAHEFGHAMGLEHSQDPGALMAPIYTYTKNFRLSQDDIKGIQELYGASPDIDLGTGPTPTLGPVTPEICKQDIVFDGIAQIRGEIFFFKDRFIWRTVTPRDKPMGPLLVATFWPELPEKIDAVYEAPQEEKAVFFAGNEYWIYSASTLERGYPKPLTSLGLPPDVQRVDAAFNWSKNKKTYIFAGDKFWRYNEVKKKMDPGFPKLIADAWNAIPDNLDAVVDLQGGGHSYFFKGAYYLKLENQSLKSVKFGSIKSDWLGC

Row | Kd [1] [nM] | Kd [2] [nM] | Substance
1 | 0.56 | – | MT1-MMP/TIMP-2 complex (from UniProt P50281)
2 | – | 2.54 | MT1-MMP (from UniProt P50281)
